Assay: Biodistribution study of ovalbumin in rabbit eye tissues and plasma, quantified with ELISA
Assay type: in vivo, New Zealand white rabbits
Method: Biodistribution studies involved healthy New Zealand white rabbits (n=5). The right eye of the rabbits was given a 100 μL of gel with the MOF and PLGA MP particles, independently, and a 50 μL injection of 10 mg/mL ovalbumin solution, for comparative purposes. The left eye was the experimental control. At 1 and 3 days, rabbits were sacrificed, and both eyes were removed. Aqueous humor, vitreous humor, retina-choroid and plasma were collected, and time-dependent concentrations were quantified with ELISA.
After one administration of the topical delivery system, ovalbumin is detectable in the aqueous humor, vitreous humor, retina-choroid, and plasma. […] However, these concentrations are 10^5 lower than what is seen with intravitreal injections after 3 days.

[1] = after one administration of the topical delivery system, rabbit

B1: ovalbumin (protein, UniProt P01012 2-386, looked up)
Ovalbumin: GSIGAASMEFCFDVFKELKVHHANENIFYCPIAIMSALAMVYLGAKDSTRTQINKVVRFDKLPGFGDSIEAQCGTSVNVHSSLRDILNQITKPNDVYSFSLASRLYAEERYPILPEYLQCVKELYRGGLEPINFQTAADQARELINSWVESQTNGIIRNVLQPSSVDSQTAMVLVNAIVFKGLWEKAFKDEDTQAMPFRVTEQESKPVQMMYQIGLFRVASMASEKMKILELPFASGTMSMLVLLPDEVSGLEQLESIINFEKLTEWTSSNVMEERKIKVYLPRMKMEEKYNLTSVLMAMGITDVFSSSANLSGISSAESLKISQAVHAAHAEINEAGREVVGSAEAGVDAASVSEEFRADHPFLFCIKHIATNAVLFFGRCVSP
notes: test agent, acting as a surrogate agent for other anti-VEGF proteins
After one administration of the topical delivery system (100 μL gel with particles), rabbit
  ovalbumin detection in aqueous humor: detectable
[1]
  ovalbumin concentration in retina-choroid relative to vitreous humor: 9 ×
  ovalbumin concentration in the vitreous humor: ~1 ng/mL
  ovalbumin detection in plasma: detectable
  ovalbumin detection in retina-choroid: detectable
  ovalbumin detection in vitreous humor: detectable
Topical delivery system vs intravitreal injection, after 3 days
  factor by which concentrations are lower than with intravitreal injections: 10^5

— patent US20250367130A1, “THERMORESPONSIVE HYDROGEL CONTAINING METAL-ORGANIC FRAMEWORK PARTICLES FOR NONINVASIVE OCULAR DRUG DELIVERY” (University of Pittsburgh - Of the Commonwealth System of …, priority 2024, published 2025)
